Measured values published in US20230218735A1 (Pfizer, published 2023).

B1: hCDIFA-53 (antibody, V domains shown)
VH: QVQLQQSGPGLVKPSETLSLTCTLSGGSISSDNYYWGWVRQPPGKGLEWIGSIYYSGSTYYNPSLKSRVFISVDMSKNQFSLKLSSVTAADTAVYYCARHTQGLGILRYFDWWTRPFDYWGQGTLVTVSS
VL: QSALTQPASVSGSPGQSITISCTGTSSDVGSYNLVSWYQQHPGKAPKLMIYEGSKRPSGVSNRFSGSKSGNTASLTISGLQAEDEADYYCCSYAGSSTLFGGGTKLTVLG
B2: hCDIFA-47 (antibody, V domains shown)
VH: QVQLQESGAEVKKPGSSVKVSCQASGGTFSNYAFNWVRQAPGQGLEWMGRTIPIVGLVNYAQNFQGRITFSADKSTSTAYMEVNSLRSDDTAVYYCARAEYPLNCTRGNCDVGTSYHYYYGMGVWGRGTTVTVSS
VL: EIVMTQSPATLSVSPGERATLSCRASQSISSNLAWFQQKPGQAPRLLIHGASTRATGIPVRFSGSGSGTEFTLTISSLQFGDSAVYYCQQYYNWRYTFGQGTKLEIKR
B3: hCDIFA-50 (antibody, V domains shown)
VH: QVQLVQSGTEVKKPGASVKVSCKASGYTFTNYGISWVRQAPGQGLEWMGWISGNNGHTNYAQNLQGRVTMTTDTSTSTAYMELRSLRSDDTAVYYCARVTRWFGELLGDYWGQGTLVTVSS
VL: QTVVTQEPSLTVSPGGTVTLTCASSTGAVTSGFLPNWFQQKPGQAPRALIYNTNNKHSWTPARFSGSLLGGKAALTLSGVQPEDEAEYYCLLYFDDAQVQVFGGGTKLTVLG
B4: hCDIFA-54 (antibody, V domains shown)
VH: QVQLVESGAEVKKPGASVKVSCKASGYTFTSYDINWVRQATGQGLEWMGWMNPNSGNTGYAQKFQGRVTMTRNTSISTAYMELSSLRSEDTAVYYCARGGPNSGSFSHWFDPWGQGTLVTVSS
VL: QAVVTQPPSASASLGASVTLTCTLSSGYSNYKVDWYQQRPGKGPRFVMRVGTGGIVGSKGDGIPDRFSVLGSGLNRYLTIKNIQEDDESDYHCGADHGSGSNFAVVFGGGTKLTVLG
B5: hCDIFA-4 (antibody, V domains shown)
VH: QVQLQESGPGLVKPSGTLSLTCAVSGGSISSINWWSWVRQPPGKGLEWIGEIYHSGSTNYNPSLKSRVTISVDKSKNQFSLKLSSVTAADTAVYYCAREGKVDSSSQGNWFDPWGQGTLVTVSS
VL: QPVLTQPRSVSGSPGQSVTISCTGTSSDVGGYNYVSWYQQHPGKAPKFMIYDVSKRPSGVPDRFSGSKSGNTASLTISGLQAEDEADYYCCSYAGTYTFYVFGTGTKVTVLG
B6: hCDIFA-49 (antibody, V domains shown)
VH: QVQLQESGPRLLEPSETLSLSCTVSGGSITSYYWGWIRQSPGKGLQWIGHIDSSGNTNYNYNSSLMNRVTISVVTSKNQFSLKLTSVTPADSAVYYCARVYLFYFGQSKWEYFDSWGQGTLVTVSS
VL: QSALTQPPSVSGAPGQRVTISCTGSDSNIGTDYDVHWYKQVPGAAPKLLIYGINNRPSGVPDRFSGSKSGTSASLAITGLQAEDEGDYYCQSYDIRPSGSVVFGGGTKLTVLG
B7: hCDIFA-51 (antibody, V domains shown)
VH: EVQLLESGGGVVQPGRSLRLSCAASGFTFSNYGMHWVRQAPGKGLEWVAVIWYDGSNKYYADSVKGRFTISRDNSKNMVYLQMNSLRGADTAVYYCAGDRHLGLWGYYYYYYAMDVWGQGTTVTVSS
VL: QAVVTQPPSVSAAPGQRVTISCSGSSSNIGKNYVSWYQHLPGTAPKLLIYESNKRPSGIPDRFSGSKSGTSATLGITGLQTGDEADYYCGTWDSSLSAGLFGGGTKVTVLG
B8: hCDIFA-43 (antibody, V domains shown)
VH: QVQLVQSGPVLVKPTETLMLTCTVSGFSLSSAGMGVSWIRQPPGKAPEWLAHIFLSDEKSYRTSLESRLTISKDTSKSQVVLIMTNVDPADTATYYCARALKRYCTGGVCFLNWFDSWGPGTVVTVSS
VL: DIVMTQSPGTLSLSPGERATLSCRASLSIGNLYLAWYKQRPGHPPRLLIYGASSRATGTPDRFSGSGSGTDFTLTISRLEPEDFVVYYCQQYKTSPWTFGQGTKVEIKR

Molecular target: C. difficile toxin A (Clostridium difficile, UniProt P16154 1-2710)
Sequence (P16154 whole entry): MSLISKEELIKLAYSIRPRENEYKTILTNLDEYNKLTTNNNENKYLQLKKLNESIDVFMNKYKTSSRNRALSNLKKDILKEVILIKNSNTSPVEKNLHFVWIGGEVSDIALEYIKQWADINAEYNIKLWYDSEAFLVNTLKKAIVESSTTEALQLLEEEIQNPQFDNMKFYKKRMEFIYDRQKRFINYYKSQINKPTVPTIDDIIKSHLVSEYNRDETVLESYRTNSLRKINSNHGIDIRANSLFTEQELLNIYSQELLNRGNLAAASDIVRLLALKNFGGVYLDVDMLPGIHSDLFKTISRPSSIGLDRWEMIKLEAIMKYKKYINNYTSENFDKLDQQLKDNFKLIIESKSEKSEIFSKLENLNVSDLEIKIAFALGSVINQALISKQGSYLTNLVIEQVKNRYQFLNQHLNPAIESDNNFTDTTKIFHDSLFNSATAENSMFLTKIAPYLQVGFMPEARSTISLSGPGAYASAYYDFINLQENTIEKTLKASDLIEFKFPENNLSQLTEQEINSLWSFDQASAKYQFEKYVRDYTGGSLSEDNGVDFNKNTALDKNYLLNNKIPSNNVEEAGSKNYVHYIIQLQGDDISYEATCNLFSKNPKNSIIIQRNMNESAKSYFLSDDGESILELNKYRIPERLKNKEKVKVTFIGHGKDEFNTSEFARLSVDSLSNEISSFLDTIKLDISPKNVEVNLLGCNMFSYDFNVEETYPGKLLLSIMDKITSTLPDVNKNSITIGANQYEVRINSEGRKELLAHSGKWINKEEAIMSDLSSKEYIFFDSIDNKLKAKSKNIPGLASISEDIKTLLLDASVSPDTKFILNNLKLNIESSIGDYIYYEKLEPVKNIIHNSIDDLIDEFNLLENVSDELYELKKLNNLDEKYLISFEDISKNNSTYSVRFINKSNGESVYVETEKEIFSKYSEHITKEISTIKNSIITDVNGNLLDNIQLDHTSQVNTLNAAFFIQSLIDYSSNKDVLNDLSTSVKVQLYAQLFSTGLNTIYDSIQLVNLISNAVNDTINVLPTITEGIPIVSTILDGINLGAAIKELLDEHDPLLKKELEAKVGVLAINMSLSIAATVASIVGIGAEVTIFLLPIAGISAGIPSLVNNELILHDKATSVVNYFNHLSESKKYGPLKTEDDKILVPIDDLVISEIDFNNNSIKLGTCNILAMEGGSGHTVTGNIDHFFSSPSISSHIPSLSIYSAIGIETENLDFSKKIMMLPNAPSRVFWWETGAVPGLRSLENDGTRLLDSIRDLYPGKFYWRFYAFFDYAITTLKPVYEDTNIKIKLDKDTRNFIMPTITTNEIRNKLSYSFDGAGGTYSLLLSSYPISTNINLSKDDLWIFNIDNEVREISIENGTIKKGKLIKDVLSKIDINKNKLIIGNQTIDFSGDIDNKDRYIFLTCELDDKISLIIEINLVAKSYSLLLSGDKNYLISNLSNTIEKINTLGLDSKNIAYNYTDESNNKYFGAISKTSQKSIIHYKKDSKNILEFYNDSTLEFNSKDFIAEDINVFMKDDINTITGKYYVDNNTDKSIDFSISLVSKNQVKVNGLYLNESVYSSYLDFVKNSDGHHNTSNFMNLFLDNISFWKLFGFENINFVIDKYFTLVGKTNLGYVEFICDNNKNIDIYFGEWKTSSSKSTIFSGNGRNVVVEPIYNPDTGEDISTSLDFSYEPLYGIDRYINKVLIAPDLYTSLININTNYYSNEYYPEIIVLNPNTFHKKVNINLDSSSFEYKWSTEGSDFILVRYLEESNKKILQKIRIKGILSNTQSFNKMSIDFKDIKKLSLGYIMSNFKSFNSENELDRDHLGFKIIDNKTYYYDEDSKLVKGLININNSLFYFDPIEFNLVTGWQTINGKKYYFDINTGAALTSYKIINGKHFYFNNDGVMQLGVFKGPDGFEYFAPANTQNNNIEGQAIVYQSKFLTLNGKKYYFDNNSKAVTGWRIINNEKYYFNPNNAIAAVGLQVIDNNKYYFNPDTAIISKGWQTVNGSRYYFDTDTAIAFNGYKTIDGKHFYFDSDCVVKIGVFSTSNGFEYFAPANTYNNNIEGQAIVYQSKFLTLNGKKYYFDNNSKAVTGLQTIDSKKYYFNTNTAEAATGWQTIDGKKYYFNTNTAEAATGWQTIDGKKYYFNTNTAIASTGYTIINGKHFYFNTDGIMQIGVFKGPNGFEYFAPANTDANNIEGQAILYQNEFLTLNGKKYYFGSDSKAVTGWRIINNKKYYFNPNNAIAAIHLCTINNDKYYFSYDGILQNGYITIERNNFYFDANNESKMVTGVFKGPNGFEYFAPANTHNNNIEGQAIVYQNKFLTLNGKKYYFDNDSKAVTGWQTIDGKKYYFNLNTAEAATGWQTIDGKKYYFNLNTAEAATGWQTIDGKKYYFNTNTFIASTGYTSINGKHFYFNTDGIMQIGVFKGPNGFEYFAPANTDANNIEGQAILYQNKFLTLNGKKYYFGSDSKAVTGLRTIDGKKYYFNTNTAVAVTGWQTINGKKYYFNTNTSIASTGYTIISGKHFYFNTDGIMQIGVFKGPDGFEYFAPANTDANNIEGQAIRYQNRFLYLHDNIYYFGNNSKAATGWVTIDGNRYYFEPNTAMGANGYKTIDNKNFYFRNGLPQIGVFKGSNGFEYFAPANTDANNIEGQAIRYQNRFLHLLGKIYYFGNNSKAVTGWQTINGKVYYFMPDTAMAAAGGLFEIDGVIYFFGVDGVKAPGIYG
Assay: cell-based or functional assay

| Binder | EC50 TcdA [RLU], toxin neutralization assay (TNA) on IMR90 cells |
| --- | --- |
| B1 | 4100 RLU |
| B2 | 12700 RLU |
| B3 | 1490 RLU |
| B4 | 1490 RLU |
| B5 | 22800 RLU |
| B6 | 305000 RLU |
| B7 | 1640 RLU |
| B8 | 3210 RLU |
